Results taken from patent US20160264649A1.

Tests used:
Test in all cases: cell-based or functional assay
[1] = target: HIV-1 Env of isolate 6535.3 (subtype B) (HIV-1)
[2] = target: HIV-1 Env of isolate 92UG001 (subtype D) (HIV-1)
[3] = target: HIV-1 Env of isolate 92UG005 (subtype D) (HIV-1)
[4] = target: HIV-1 Env of isolate 92UG037 (subtype A) (HIV-1)
[5] = target: HIV-1 Env of isolate 92WR026 (subtype A) (HIV-1)
[6] = target: HIV-1 Env of isolate 93UG077 (subtype A) (HIV-1)
[7] = target: HIV-1 Env of isolate 94 KE 105 (subtype AC) (HIV-1)
[8] = target: HIV-1 Env of isolate 98CN006 (subtype CRF08_BC) (HIV-1)
[9] = target: HIV-1 Env of isolate CAAN.A2 (subtype B) (HIV-1)
[10] = target: HIV-1 Env of isolate CMU02 (subtype AE) (HIV-1)
[11] = target: HIV-1 Env of isolate JRCSF (subtype B) (HIV-1) (UniProt P20871)
[12] = target: HIV-1 Env of isolate JRFL (subtype B) (HIV-1)
[13] = target: HIV-1 Env of isolate MG RM-C-019 (subtype C) (HIV-1)
[14] = target: HIV-1 Env of isolate MG RM-C-020 (subtype C) (HIV-1)
[15] = target: HIV-1 Env of isolate MG RM-C-028 (subtype C) (HIV-1)
[16] = target: HIV-1 Env of isolate MGRM-AE-001 (subtype AE) (HIV-1)
[17] = target: HIV-1 Env of isolate MGRM-AE-006 (subtype AE) (HIV-1)
[18] = target: HIV-1 Env of isolate MGRM-Chronic-B-001 (subtype B) (HIV-1)
[19] = target: HIV-1 Env of isolate MGRM-Chronic-B-002 (subtype B) (HIV-1)
[20] = target: HIV-1 Env of isolate MGRM-Chronic-B-003 (subtype B) (HIV-1)
[21] = target: HIV-1 Env of isolate MGRM-Chronic-B-004 (subtype B) (HIV-1)
[22] = target: HIV-1 Env of isolate MGRM-Chronic-B-010 (subtype B) (HIV-1)
[23] = target: HIV-1 Env of isolate MGRM-Chronic-B-020 (subtype B) (HIV-1)
[24] = target: HIV-1 Env of isolate MGRM-Chronic-B-024 (subtype B) (HIV-1)
[25] = target: HIV-1 Env of isolate MGRM-D-001 (subtype D) (HIV-1)
[26] = target: HIV-1 Env of isolate MGRM-D-008 (subtype D) (HIV-1)
[27] = target: HIV-1 Env of isolate MGRM-D-018 (subtype D) (HIV-1)
[28] = target: HIV-1 Env of isolate MGRM-D-021 (subtype D) (HIV-1)
[29] = target: HIV-1 Env of isolate MGRM-D-022 (subtype D) (HIV-1)
[30] = target: HIV-1 Env of isolate MGRM-F1-004 (subtype F) (HIV-1)
[31] = target: HIV-1 Env of isolate MGRM-F1-008 (subtype F) (HIV-1)
[32] = target: HIV-1 Env of isolate MGRM-F1-014 (subtype F) (HIV-1)
[33] = target: HIV-1 Env of isolate MGRM-F1-015 (subtype F) (HIV-1)
[34] = target: HIV-1 Env of isolate MGRM-F1-017 (subtype F) (HIV-1)
[35] = target: HIV-1 Env of isolate MGRM-F1-023 (subtype F) (HIV-1)
[36] = target: HIV-1 Env of isolate NL43 (subtype B) (HIV-1)
[37] = target: HIV-1 Env of isolate PVO.4 (subtype B) (HIV-1)
[38] = target: HIV-1 Env of isolate SF162 (subtype B) (HIV-1) (UniProt P19550)
[39] = target: HIV-1 Env of pseudovirus isolate MGRM-G-001 (subtype G) (HIV-1)
[40] = target: HIV-1 Env of pseudovirus isolate MGRM-G-004 (subtype G) (HIV-1)
[41] = target: HIV-1 Env of pseudovirus isolate MGRM-G-013 (subtype G) (HIV-1)
[42] = target: HIV-1 Env of pseudovirus isolate MGRM-G-014 (subtype G) (HIV-1)
[43] = target: HIV-1 Env of pseudovirus isolate MGRM-G-025 (subtype G) (HIV-1)
[44] = target: envelope of aMLV pseudovirus (negative control)
HIV-1 ADA Env (HIV-1) = target: HIV-1 ADA Env (HIV-1)
[45] = target: HIV-1 JR-CSF Env (wild-type) (HIV-1) (UniProt P20871)

1443_C16 (PG16) (TCN-116) (antibody), sequence (VH): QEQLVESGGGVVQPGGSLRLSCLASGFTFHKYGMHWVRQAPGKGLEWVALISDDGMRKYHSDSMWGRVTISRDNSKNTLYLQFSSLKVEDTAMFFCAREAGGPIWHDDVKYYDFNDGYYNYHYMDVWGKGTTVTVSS
1443_C16 (PG16) (TCN-116) (antibody), sequence (VL): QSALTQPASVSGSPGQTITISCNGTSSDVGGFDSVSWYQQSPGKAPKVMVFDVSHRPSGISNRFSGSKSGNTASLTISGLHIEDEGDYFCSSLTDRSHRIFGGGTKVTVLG

PGV04 (antibody) was tested, and the IC50 [1] was 0.757 µg/mL, the IC50 (neutralization) [2] was 0.553 µg/mL and the IC50 (neutralization) [3] was 0.44 µg/mL. The IC50 (pseudovirus neutralization) [4] was 0.145 µg/mL, the IC50 (pseudovirus neutralization) [5] was 0.14 µg/mL and the IC50 (pseudovirus neutralization) [6] was 0.083 µg/mL. The IC50 (pseudovirus neutralization) [7] was 2.98 µg/mL, the IC50 (neutralization) [8] was 1.32 µg/mL and the IC50 [9] was 2.26 µg/mL. It also gave an IC50 (pseudovirus neutralization) [10] of 1.24 µg/mL, an IC50 (µg/mL), pseudovirus neutralization [11] of 0.078 µg/mL and an IC50 [12] of 0.032 µg/mL. For the same substance, the IC50 (µg/mL), pseudovirus neutralization [13] was 9.63 µg/mL, the IC50 (µg/mL), pseudovirus neutralization [14] was 0.112 µg/mL and the IC50 (µg/mL), pseudovirus neutralization [15] was 0.149 µg/mL. The IC50 (pseudovirus neutralization) [16] was 0.063 µg/mL, the IC50 (pseudovirus neutralization) [17] was greater than 50 µg/mL and the IC50 [18] was 0.048 µg/mL. The IC50 [19] was 0.142 µg/mL, the IC50 [20] was 0.258 µg/mL and the IC50 [21] was 0.047 µg/mL. For the same substance, the IC50 [22] was 0.744 µg/mL, the IC50 [23] was 1.26 µg/mL and the IC50 [24] was 2.52 µg/mL. The IC50 (pseudovirus neutralization) [25] was greater than 50 µg/mL, the IC50 (pseudovirus neutralization) [26] was 3.56 µg/mL and the IC50 (pseudovirus neutralization) [27] was 17.5 µg/mL. It also gave an IC50 (pseudovirus neutralization) [28] greater than 50 µg/mL, an IC50 (pseudovirus neutralization) [29] greater than 50 µg/mL and an IC50 (pseudovirus neutralization) [30] of 0.58 µg/mL. For the same substance, the IC50 (pseudovirus neutralization) [31] was 1.03 µg/mL, the IC50 (pseudovirus neutralization) [32] was 0.02 µg/mL and the IC50 (pseudovirus neutralization) [33] was 0.179 µg/mL. For the same substance, the IC50 (pseudovirus neutralization) [34] was 2.38 µg/mL, the IC50 (pseudovirus neutralization) [35] was 0.171 µg/mL and the IC50 (µg/mL), pseudovirus neutralization [36] was 0.028 µg/mL. It also gave an IC50 [37] of 0.454 µg/mL, an IC50 (µg/mL), pseudovirus neutralization [38] of 0.028 µg/mL and an IC50 [39] greater than 50 µg/mL. It also gave an IC50 [40] greater than 50 µg/mL, an IC50 [41] of 0.168 µg/mL and an IC50 [42] of 0.056 µg/mL. The IC50 [43] was 1.61 µg/mL and the IC50 [44] was greater than 50 µg/mL.
Work on 1496_C09 (PG9) (TCN-109) (antibody) yielded an IC50, TZM-bl pseudovirus neutralization (HIV-1 ADA Env (HIV-1)) of 0.2 µg/mL, an IC50 [1] of 1.05 µg/mL and an IC50 (pseudovirus neutralization) [5] of 0.164 µg/mL. For the same substance, the IC50 (pseudovirus neutralization) [7] was 37.9 µg/mL, the IC50 [9] was 19.3 µg/mL and the IC50 (µg/mL), pseudovirus neutralization [11] was 0.003 µg/mL. The IC50 (µg/mL), pseudovirus neutralization [13] was 0.005 µg/mL, the IC50 (µg/mL), pseudovirus neutralization [15] was 0.067 µg/mL and the IC50 (pseudovirus neutralization) [16] was 20.6 µg/mL. It also gave an IC50 (pseudovirus neutralization) [17] of 0.063 µg/mL, an IC50 [19] of 3.44 µg/mL and an IC50 [21] of 0.533 µg/mL. It also gave an IC50 [22] of 0.004 µg/mL, an IC50 [24] of 0.222 µg/mL and an IC50 (pseudovirus neutralization) [26] of 11.5 µg/mL. It also gave an IC50 (pseudovirus neutralization) [30] of 0.175 µg/mL, an IC50 [37] of 24.8 µg/mL and an IC50 [39] of 0.166 µg/mL. For the same substance, the IC50 [42] was 16.5 µg/mL and the IC50, TZM-bl pseudovirus neutralization [45] was 0.006 µg/mL.
With VRC01 (antibody) the IC50 [1] was 1.75 µg/mL, the IC50 (neutralization) [2] was 1.16 µg/mL and the IC50 (neutralization) [3] was 0.576 µg/mL. It also gave an IC50 (pseudovirus neutralization) [4] of 0.245 µg/mL, an IC50 (pseudovirus neutralization) [6] of 0.097 µg/mL and an IC50 (pseudovirus neutralization) [7] of 0.499 µg/mL. The IC50 (neutralization) [8] was 0.644 µg/mL, the IC50 [9] was 0.722 µg/mL and the IC50 (pseudovirus neutralization) [10] was 0.515 µg/mL. The IC50 [11] was 0.164 µg/mL, the IC50 [12] was 0.034 µg/mL and the IC50 [13] was 1.13 µg/mL. For the same substance, the IC50 [14] was 0.396 µg/mL, the IC50 [15] was 0.319 µg/mL and the IC50 (pseudovirus neutralization) [16] was 0.167 µg/mL. It also gave an IC50 (pseudovirus neutralization) [17] of 4.65 µg/mL, an IC50 [18] of 0.066 µg/mL and an IC50 [19] of 0.117 µg/mL. It also gave an IC50 [20] of 0.1 µg/mL, an IC50 [21] of 0.055 µg/mL and an IC50 [22] of 0.156 µg/mL. For the same substance, the IC50 [23] was 0.424 µg/mL, the IC50 [24] was 0.377 µg/mL and the IC50 (pseudovirus neutralization) [25] was greater than 50 µg/mL. The IC50 (pseudovirus neutralization) [26] was 0.854 µg/mL, the IC50 (pseudovirus neutralization) [27] was greater than 50 µg/mL and the IC50 (pseudovirus neutralization) [28] was 33.4 µg/mL. The IC50 (pseudovirus neutralization) [29] was greater than 50 µg/mL, the IC50 (pseudovirus neutralization) [30] was 0.305 µg/mL and the IC50 (pseudovirus neutralization) [31] was 1.11 µg/mL. It also gave an IC50 (pseudovirus neutralization) [32] of 0.056 µg/mL, an IC50 (pseudovirus neutralization) [33] of 0.387 µg/mL and an IC50 (pseudovirus neutralization) [34] of 1.08 µg/mL. It also gave an IC50 (pseudovirus neutralization) [35] of 0.392 µg/mL, an IC50 [36] of 0.1 µg/mL and an IC50 [37] of 0.218 µg/mL. It also gave an IC50 [38] of 0.421 µg/mL, an IC50 [39] of 0.0371 µg/mL and an IC50 [40] greater than 50 µg/mL. The IC50 [41] was 0.553 µg/mL, the IC50 [42] was 0.056 µg/mL and the IC50 [43] was 0.292 µg/mL. For the same substance, the IC50 [44] was greater than 50 µg/mL.
1443_C16 (PG16) (TCN-116) (antibody) was tested, and the IC50, TZM-bl pseudovirus neutralization (HIV-1 ADA Env (HIV-1)) was 0.004 µg/mL and the IC50, TZM-bl pseudovirus neutralization [45] was 0.001 µg/mL.
